Data taken from patent US20210147922.

Key:
Experiment in all cases: cell_activity
[1] = tested on: AAVS1_R TALEN right monomer; conditions: paired with AAVS1_L, 2 ug per monomer, K562 cells
[2] = tested on: GA6_R TALEN right monomer; conditions: paired with GA6_L, 2 ug mRNA per monomer, K562 cells
[3] = tested on: GA6_EK TALEN right monomer; conditions: GA6_EK pair; GA6 54% in same table
[4] = tested on: GA7_EK TALEN right monomer; conditions: GA7_EK pair, CD34+ cells; GA7 50%
[5] = tested on: GA7_R TALEN right monomer; conditions: paired with GA7_L, 2 ug per monomer, CD34+ cells
[6] = tested on: AAVS1_L TALEN left monomer; conditions: paired with AAVS1_R, 2 ug per monomer, K562 cells
[7] = tested on: GA7_L TALEN left monomer; conditions: paired with GA7_R, 2 ug per monomer, CD34+ cells
[8] = tested on: GA7_EK TALEN left monomer; conditions: GA7_EK pair, CD34+ cells; GA7 50%
[9] = tested on: GA6_L19 TALEN left monomer; conditions: paired with GA6_R, K562 cells
[10] = tested on: GA6_L (GA6_L14) TALEN left monomer; conditions: paired with GA6_R, K562 cells
[11] = tested on: GA6_EK TALEN left monomer; conditions: GA6_EK pair; GA6 54% in same table
[12] = tested on: GA6_L17 TALEN left monomer; conditions: paired with GA6_R, K562 cells

AGGATTGGTGACAGAAA (double strand) [AAVS1 right half-site (printed top strand)]
activity [1]: 93 % editing

AGTGCATGGCTGCAATGTGTGA (double strand) [GA6 right half-site (printed top strand)]
activity [2]: 91 % editing | activity [3]: 36 % editing

ATGGTAGAGAATGAGAGGGGGA (double strand) [GA7 right half-site (printed top strand)]
activity [4]: 20 % editing | activity [5]: 70 % editing

TCCCCTCCACCCCACAGT (double strand) [AAVS1 left half-site]
activity [6]: 93 % editing

TGCTCAGCCCAGCTCAGCCT (double strand) [GA7 left half-site]
activity [7]: 70 % editing | activity [8]: 20 % editing

TGGAGTGTGTAACAATGCCT (double strand) [GA6_L19 left half-site]
activity [9]: 86 % editing

TGTGTAACAATGCCT (double strand) [GA6 left half-site]
activity [10]: 96 % editing | activity [11]: 36 % editing

TGTGTAACAATGCCTGTG (double strand) [GA6_L17 left half-site]
activity [12]: 98 % editing
